The target in this test is 重组KRAS突变体蛋白 (KRAS Mut). The test can be described thus: indirect ELISA, KRAS Mut coated at 1 μg/mL, antibody diluted 1:10^3 to 1:10^6, HRP goat anti-mouse, OD450.
Chain of 重组KRAS突变体蛋白 (KRAS Mut) (chain, as listed by the source limits assumed): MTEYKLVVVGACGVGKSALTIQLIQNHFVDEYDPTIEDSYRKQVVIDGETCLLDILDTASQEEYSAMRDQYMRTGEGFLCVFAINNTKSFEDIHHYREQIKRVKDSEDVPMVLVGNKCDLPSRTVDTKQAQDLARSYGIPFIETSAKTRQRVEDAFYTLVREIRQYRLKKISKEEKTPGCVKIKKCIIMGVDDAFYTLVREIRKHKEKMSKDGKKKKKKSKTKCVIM

B1: 抗KRAS突变体单克隆抗体 KRAS Mut mAb (antibody, V domains shown)
VH: QIQLQESGPGLVKPSQSLSLTCTVTGYSITSDYAWNWIRQFPGNKLEWMGYINYSGSTSYNPSLKSRISITRDTSKNQFFLQLISVTSEDTATYYCAGSGYVRGFAYWGQGTLVTVSA
VL: DICKTQSHKFMSTSVGDRVSITCKASQDVGTAVAWYQQKPGQSPKLLIYWASTRHTGVPDRFTGSESGTDFTLTISNVQSEDLADYFCQQYSSYPYTFGGGTKLEIKR
In turn, B1 gave a 效价 (ELISA titer) (dilution factor (1:x)) of 100000.
